# Measured values from US20250340636A1 (Memorial Sloan Kettering, published 2025).
# Legend:
# [1] = target: T1, soluble cynomolgus monkey L1CAM, His-tagged, monomeric (cynomolgus monkey, UniProt A0A2K5URB5 20-1120); test: BLI (Octet Red96e), His-tagged cynomolgus L1CAM on Ni-NTA biosensors, mAb as analyte, 1:1 fit
# T1 construct: also called cyL1CAM protein; cynomolgus L1CAM-His
# Method: (§1) Cross-reactivity to Cynomolgus Monkey L1CAM. Affinity to cynomolgus L1CAM was measured by BLI using an Octet Red96e instrument. […] The data was prepared by reference well subtraction, and response curves were globally fit to a 1:1 Langmuir binding model.
# human L1CAM on cells = target: T2, human L1CAM on cells (human, UniProt P32004 20-1257); test: summary table; binding to cells overexpressing human L1CAM (HEK293T)
# T2 construct: Overexpressed on stably transfected HEK293T cells or endogenous on MCF-7 and MDA-MB-231 cells; also called HEK293T-hL1CAM
# T2 sequence (P32004 20-1257): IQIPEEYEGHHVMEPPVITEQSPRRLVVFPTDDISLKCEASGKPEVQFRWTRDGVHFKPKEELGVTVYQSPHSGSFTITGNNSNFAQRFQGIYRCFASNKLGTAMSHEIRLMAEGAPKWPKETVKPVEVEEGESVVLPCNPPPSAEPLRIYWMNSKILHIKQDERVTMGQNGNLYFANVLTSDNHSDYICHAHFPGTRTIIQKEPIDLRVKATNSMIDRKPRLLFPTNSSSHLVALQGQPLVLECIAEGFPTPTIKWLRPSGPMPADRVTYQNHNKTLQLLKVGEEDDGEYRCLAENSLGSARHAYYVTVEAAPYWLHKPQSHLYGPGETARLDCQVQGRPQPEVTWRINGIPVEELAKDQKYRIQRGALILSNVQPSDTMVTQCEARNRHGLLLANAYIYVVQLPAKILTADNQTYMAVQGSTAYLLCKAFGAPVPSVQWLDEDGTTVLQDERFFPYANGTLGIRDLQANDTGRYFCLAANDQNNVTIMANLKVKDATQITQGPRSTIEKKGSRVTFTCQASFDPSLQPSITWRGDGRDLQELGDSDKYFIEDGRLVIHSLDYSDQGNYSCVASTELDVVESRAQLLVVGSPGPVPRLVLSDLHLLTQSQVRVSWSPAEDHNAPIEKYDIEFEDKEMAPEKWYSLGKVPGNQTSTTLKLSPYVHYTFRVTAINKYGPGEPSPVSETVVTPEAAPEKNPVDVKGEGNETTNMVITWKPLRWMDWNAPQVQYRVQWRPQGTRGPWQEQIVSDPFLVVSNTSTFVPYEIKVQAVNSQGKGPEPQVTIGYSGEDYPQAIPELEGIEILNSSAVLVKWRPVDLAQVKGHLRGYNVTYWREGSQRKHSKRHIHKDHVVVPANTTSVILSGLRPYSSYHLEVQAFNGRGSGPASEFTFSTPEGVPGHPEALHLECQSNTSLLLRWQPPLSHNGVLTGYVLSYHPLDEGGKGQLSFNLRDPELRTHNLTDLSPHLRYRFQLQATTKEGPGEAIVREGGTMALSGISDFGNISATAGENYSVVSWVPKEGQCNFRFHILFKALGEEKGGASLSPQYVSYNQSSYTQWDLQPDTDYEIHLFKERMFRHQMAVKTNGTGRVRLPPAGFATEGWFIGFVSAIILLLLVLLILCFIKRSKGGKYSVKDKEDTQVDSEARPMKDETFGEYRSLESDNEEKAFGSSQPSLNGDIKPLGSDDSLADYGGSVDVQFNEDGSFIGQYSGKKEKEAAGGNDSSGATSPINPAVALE
# Method: Binding to L1CAM on Cells. […] Cells were then incubated with an AlexaFluor 647 goat anti-human Fc secondary antibody. After washing, the stained cells were analyzed by flow cytometry.
# The binding curves for each antibody and cell line normalized to secondary antibody only staining (MFI ratio) are shown in FIGS. 14A-14C. EC50 values were determined by non-linear regression (Table 70). […] It is possible that differences in the conformation and oligomerization of L1CAM, depending on the surface expression level, contributed to the binding pattern. […] An avidity effect due to high levels of L1CAM surface expression may have contributed to the strong binding observed in this experiment.
# [2] = target: T3, soluble mouse L1CAM (monomer), His-tagged (mouse, UniProt P11627 20-1123, limits assumed); test: summary table; soluble mouse protein (row printed as 'mouse CD40 (monomer)', read as mouse L1CAM)
# T3 construct: read as mouse
# T3 sequence (P11627 20-1123 limits assumed): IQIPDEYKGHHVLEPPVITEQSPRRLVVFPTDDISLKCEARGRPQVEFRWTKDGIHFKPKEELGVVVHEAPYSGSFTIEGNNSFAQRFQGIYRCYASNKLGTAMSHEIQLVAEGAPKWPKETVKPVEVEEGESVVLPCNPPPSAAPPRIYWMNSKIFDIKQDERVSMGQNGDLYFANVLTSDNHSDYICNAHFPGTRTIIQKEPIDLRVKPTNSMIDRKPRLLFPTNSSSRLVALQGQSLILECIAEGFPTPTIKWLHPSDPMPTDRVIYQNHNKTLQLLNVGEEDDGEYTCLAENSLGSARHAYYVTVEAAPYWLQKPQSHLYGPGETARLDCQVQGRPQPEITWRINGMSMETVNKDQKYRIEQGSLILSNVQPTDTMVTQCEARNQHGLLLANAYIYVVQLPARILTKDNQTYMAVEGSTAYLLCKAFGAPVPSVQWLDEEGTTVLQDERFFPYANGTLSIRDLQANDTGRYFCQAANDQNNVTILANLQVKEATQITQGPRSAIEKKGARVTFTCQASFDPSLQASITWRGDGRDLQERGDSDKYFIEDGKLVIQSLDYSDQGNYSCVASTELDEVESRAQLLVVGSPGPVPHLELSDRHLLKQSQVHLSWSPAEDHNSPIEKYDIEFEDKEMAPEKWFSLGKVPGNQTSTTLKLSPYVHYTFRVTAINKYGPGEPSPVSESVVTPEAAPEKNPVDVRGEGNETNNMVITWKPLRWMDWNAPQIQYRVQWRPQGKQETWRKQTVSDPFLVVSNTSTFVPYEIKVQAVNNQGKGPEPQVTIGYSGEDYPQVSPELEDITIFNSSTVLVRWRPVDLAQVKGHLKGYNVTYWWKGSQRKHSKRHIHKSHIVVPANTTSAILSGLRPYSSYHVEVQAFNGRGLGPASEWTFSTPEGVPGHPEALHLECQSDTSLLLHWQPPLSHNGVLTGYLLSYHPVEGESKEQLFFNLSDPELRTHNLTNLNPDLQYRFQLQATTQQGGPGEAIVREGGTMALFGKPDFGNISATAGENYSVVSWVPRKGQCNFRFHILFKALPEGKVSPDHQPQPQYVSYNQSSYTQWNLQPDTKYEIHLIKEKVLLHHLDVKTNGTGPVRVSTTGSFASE
# Method: Cross-reactivity to Mouse L1CAM. Affinity to mouse L1CAM was measured by BLI using an Octet Red96e instrument. […] The data was prepared by reference well subtraction, and response curves were globally fit to a 1:1 Langmuir binding model.
# [3] = target: T4, extracellular domain of human L1CAM (isoform 1) fused to a poly-histidine tag via its carboxy terminus (human, UniProt P32004 20-1120); test: BLI (Octet Red96e), His-tagged human L1CAM on Ni-NTA biosensors, mAb as analyte, 1:1 fit
# T4 construct: Bought (Creative Biomart); also called L1CAM-His; huL1CAM protein
# T4 sequence (P32004 20-1120): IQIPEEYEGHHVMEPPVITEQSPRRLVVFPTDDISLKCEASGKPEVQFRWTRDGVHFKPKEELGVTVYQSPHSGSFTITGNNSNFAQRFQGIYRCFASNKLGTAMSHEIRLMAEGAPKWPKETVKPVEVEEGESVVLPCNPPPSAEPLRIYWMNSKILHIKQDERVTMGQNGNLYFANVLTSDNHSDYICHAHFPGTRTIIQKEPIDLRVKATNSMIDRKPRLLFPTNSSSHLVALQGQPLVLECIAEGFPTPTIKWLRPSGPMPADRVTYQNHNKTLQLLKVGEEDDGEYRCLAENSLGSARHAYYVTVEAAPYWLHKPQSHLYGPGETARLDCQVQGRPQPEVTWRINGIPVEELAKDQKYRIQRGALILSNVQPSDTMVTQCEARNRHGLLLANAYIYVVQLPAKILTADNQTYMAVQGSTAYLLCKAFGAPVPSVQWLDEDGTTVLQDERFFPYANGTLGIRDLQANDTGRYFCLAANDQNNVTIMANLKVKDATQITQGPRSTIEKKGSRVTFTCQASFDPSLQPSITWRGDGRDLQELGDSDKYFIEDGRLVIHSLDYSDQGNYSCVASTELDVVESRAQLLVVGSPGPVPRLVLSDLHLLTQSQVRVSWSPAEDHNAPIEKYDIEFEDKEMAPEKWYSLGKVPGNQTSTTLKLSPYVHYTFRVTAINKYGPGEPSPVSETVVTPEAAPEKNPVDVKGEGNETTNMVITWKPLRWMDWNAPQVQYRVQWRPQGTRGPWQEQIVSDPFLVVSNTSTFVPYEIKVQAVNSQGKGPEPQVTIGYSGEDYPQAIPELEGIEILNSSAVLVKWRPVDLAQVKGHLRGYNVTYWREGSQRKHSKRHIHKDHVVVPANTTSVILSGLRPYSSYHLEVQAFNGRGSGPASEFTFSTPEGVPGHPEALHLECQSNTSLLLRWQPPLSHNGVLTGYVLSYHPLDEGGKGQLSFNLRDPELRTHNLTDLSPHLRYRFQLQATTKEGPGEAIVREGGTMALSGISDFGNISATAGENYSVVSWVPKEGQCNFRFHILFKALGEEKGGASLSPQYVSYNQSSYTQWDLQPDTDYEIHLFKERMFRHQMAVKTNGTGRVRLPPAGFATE
# Method: (§2) Binding to L1CAM in Solution. Affinity to human L1CAM was measured by BLI using an Octet Red96e instrument. […] The data was prepared by reference well subtraction, and response curves were globally fit to a 1:1 Langmuir binding model.
# [4] = target: T5, mouse L1CAM on transiently transfected HEK293FT cells (mouse, UniProt P11627 20-1260); test: flow cytometry, HEK293FT cells transiently transfected with mouse L1CAM (data not shown)
# T5 construct: whole, on cells; also called mouse L1CAM on cells
# T5 sequence (P11627 20-1260): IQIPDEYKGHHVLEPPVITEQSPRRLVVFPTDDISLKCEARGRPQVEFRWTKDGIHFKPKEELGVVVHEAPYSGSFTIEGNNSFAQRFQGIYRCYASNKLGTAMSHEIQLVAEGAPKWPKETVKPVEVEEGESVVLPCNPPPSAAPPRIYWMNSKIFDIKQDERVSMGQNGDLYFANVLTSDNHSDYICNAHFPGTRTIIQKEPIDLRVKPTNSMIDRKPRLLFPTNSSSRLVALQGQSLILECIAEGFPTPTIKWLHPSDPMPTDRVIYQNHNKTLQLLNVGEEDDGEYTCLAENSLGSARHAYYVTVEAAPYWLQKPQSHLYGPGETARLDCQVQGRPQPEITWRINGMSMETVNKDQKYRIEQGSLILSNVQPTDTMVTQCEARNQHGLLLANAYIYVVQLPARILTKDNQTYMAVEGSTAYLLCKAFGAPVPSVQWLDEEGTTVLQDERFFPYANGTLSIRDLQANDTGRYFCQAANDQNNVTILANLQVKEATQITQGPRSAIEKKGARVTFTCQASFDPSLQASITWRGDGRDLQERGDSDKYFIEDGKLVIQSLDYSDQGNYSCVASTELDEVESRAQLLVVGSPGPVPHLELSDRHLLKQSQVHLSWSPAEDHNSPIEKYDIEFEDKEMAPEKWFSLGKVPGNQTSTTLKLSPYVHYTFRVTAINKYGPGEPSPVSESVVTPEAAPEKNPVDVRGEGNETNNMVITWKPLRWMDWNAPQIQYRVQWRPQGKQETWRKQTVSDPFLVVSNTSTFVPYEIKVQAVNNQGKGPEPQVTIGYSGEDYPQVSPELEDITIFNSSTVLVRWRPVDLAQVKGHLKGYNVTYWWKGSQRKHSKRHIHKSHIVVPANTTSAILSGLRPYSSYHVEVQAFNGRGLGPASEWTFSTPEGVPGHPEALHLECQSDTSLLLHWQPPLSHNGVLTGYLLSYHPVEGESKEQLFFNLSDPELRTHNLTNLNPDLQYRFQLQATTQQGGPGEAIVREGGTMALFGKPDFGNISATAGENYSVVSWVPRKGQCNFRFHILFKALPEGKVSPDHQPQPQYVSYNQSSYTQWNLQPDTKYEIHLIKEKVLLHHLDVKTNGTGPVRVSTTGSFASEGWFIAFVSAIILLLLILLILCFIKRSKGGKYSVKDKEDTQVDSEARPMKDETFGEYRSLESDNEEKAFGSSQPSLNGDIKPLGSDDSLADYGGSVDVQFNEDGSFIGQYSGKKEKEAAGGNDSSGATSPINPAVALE
# [5] = target: T1, soluble cynomolgus monkey L1CAM, …; test: BLI, cynomolgus against human L1CAM-His
# Method: as §1
# [6] = target: T4, extracellular domain of human L1CAM …; test: summary table; binding to soluble human L1CAM (monomer)
# Method: as §2
binder,measurement,setting,value
"TDI-Y-005 (antibody, human IgG1, kappa, V domains shown, Human IgG1, kappa; also called human 14A10 mAb; fully human 14A10 mAb) VH: EVQMVESGGGLVQPGGSLRLSCAAPGFIFSSYNMNWVRQAPGKGLEWVSYISSSSSTTYYADSVKGRFTISRDNAKNSLYLQMNSLRDEDTAVYYCASLYSGYDYYYYYGMDVWGQGTTVTVSS VL: DIVMTQTPLSSPVSLGQPASISCRSSQSLVHSDGNTYLSWLQQRPGQPPRVLIYKISKRFSGVPDRFSGSGAGTDFTLKISRVEAEDVGVYYCMQATQFPFTFGPGTKVDIKR",Kd,[1],1.3 nM
same,koff,[1],0.00012 s⁻¹
same,kon,[1],93000 M⁻¹ s⁻¹
same,EC50,human L1CAM on cells,2 nM
same,Kd,[2],34 nM
same,koff,[2],0.0011 s⁻¹
same,kon,[2],31000 M⁻¹ s⁻¹
same,Kd,[3],4.3 nM
same,koff,[3],0.00014 s⁻¹
same,kon,[3],33000 M⁻¹ s⁻¹
same,EC50,[4],0.9 nM
same,fold difference of KD against human L1CAM,[5],≤ 3.3 fold
same,Kd,[6],4.3 nM
same,koff,[6],0.00014 s⁻¹
same,kon,[6],33000 M⁻¹ s⁻¹
